According to article doi:10.1101/2021.03.04.434028 (bioRxiv, 2021):
Where two headings read alike, the source gives them in different places.

T1: HigA antitoxin of the complexes analysed by size exclusion chromatography (Proteus vulgaris (plasmid Rts1), UniProt Q7A224 1-104)
T1 sequence (looked up): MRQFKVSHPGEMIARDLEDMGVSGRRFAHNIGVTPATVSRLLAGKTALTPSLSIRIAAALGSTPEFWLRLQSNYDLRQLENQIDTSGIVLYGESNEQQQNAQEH

B1: HigB toxin of the His6-HigBHigA complex (natural protein)
chain: MIKSFKHKGLKLLFEKGVTSGVPAQDVDRINDRLQAIDTATEIGELNRQIYKLHPLKGDREGYWSITVRANWRITFQFINGDAYILNYEDYH
B2: Wild-type HigB toxin of the HigB2HigA2 complex analysed by size exclusion chromatography (natural protein)
chain: B1 chain
B3: HigA antitoxin with C-terminal His6 tag of the HigBHigA-His6 complex (selenomethionine-derivatized) (natural protein, Proteus vulgaris (plasmid Rts1), UniProt Q7A224 1-104, looked up)
chain: T1 sequence (looked up)
modifications: selenomethionine-derivatized
B4: HigA antitoxin of the His6-HigBHigA complex (natural protein, Proteus vulgaris (plasmid Rts1), UniProt Q7A224 1-104, looked up)
chain: T1 sequence (looked up)
B5: HigB(L5ext), HigB with loop 5 extended by NGNG (natural protein)
chain: MIKSFKHKGLKLLFEKGVTSGVPAQDVDRINDRLQAIDTATEIGELNRQIYKLHPLKGDREGYWSITVRANWRITFQFINGDNGNGAYILNYEDYH

How the values were obtained:
[1] = system: HigB (of wild-type HigB2HigA2 complex);HigA (of wild-type HigB2HigA2 complex) (Proteus vulgaris (plasmid Rts1);Proteus vulgaris (plasmid Rts1)); test: EMSA; settings: binding buffer pH not stated ([…]
[2] = biological target: B4; test: crystal structure
[3] = biological target: T1, HigA antitoxin of the complexes …; test: SEC
[4] = biological target: the molecule itself; test: crystal structure
[5] = biological target: the molecule itself; test: crystal structure; remark: listed apart in the source

## O1-O2(scrambled) (O1 only)
[1]
  Kd: 360 nM

## O1(scrambled)-O2 (O2 only)
[1]
  Kd: 240 nM

## B1
[2]
  binding result: binds

## B2
[3]
  binding result: binds

## B3
[4]
  stoichiometry N: 2

## B4
[5]
  stoichiometry N: 2

## B5
[3]
  binding result: binds
